Measured values from the nanobody polyreactivity screen of Harvey et al. (2022).

Assay: yeast display, Sf9 membrane polyspecificity reagent, FACS + sequencing; frameworks hold sequencing errors
How it was run: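 After 36–48 hours of galactose induction, yeast (Saccharomyces cerevisiae BJ5465) displaying a synthetic nanobody library were stained at 4 °C for 1 hour with 10% biotinylated, detergent-solubilized Sf9 membrane reagent. Streptavidin microbeads enriched the stained cells before FACS sorting into low and high (top ~1%) gates on anti-HA and streptavidin fluorescence. Each clone's polyreactivity label reflects its gate of origin.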

Sequence | polyreactivity (PSR sort gate)
QVQLVESGGGLVHAGGSLRLSCAASGRIFIANAMGWYRQAPGNERELVAGIRGSGGRTYYADSVKGRFTISRDNAKNTVYLQMNSLKPEDTAVYDCNARTPGRLGRFDYWGQGTQVTVSS | low polyreactivity
QVQLVESGGGLVHAGGSLRLSCAASGRIFRSYAMGWYRQAPGKERELVAAITSRGGSTYYADYVKGRFTISRDNAKNTVYLQMNILKTEDTAVYYCAADSFRLGVAAWTRYNYWGQGTQVTVSS | high polyreactivity
QVQLVESGGGLVHAGGSLRLSCAASGRIFVRYAMGWYRQAPGKERELVAAINWRGSSTYYADSVKGRFTISRDNAKNTVYLQMNSLKPEDTAVYYCNTAQRYRVYRYDYWGQGTQVTVSS | high polyreactivity
QVQLVESGGGLVHAGGSLRLSCAASGRIFYVYAMGWYRQAPGKEREFVASISWSGGSTYYADSVKGRFTISRDNAKNTVYLQMNSLKPEDTAVYYCAARVVRYGYKYYYWGQCTQVTVSS | low polyreactivity
QVQLVESGGGLVHAGGSLRLSCAASGRTFGKYAMGWYRQAPGKERELVAAISSGGTTYYADSVKGRFTISRDNAKNTVYLQMNSLKPEDTAVYYCAADPRYPYNYWGQGTQVTVSS | low polyreactivity
QVQLVESGGGLVHAGGSLRLSCAASGRTFGWYAMGWYIQAPGKERELVASITHRGGRTYYADSVKGRFTISRDNAKHTVYLQMNSLNPEDTAVYYCAAKTSTGMGYWGQCTQVTVSS | high polyreactivity
QVQLVESGGGLVHAGGSLRLSCAASGRTFRLYVMGWYRQAPGKERELVASITRGTGTDYADSVKGRFRISRDNAKNTVYLQMNSLKPEDTAVYYCNVKYGQPIYGEFDYWGQGTQVTVSS | low polyreactivity
QVQLVESGGGLVHAGGSLRLSCAASGRTFRNNAMVWYRQAPGKEREWVAAITSGGSTNYADSVKGRFTISRDNAKNPVYLQMISLKPEDTGVYYCAKDFWYVTGGWSSGMDYWGQGTQVTVSS | low polyreactivity
QVQLVESGGGLVHAGGSLRLSCAASGRTFTLYAMGWYRQAPGKERELVAAITRTGRTTYADSVKGRFTISRDNAKNTVYLQMNSLKPEDTAVYYCAAEVEYTSASIVYYEYEYWGQGTQVTVSS | high polyreactivity
QVQLVESGGGLVHAGGSLRLSCAASGRTFVYYAMGWNTQAPGKERELVAAISAGGGSTYYADSEKGRFTISRDNAKITVYFQMNSLNPEDTAVYYCAADGSPEIRDNYWGQGTQVTVSS | high polyreactivity
QVQLVESGGGLVHAGGSLRLSCAASGRTFYIYAMGWYRQAPGKERELVAAISKSGGRTYYADSVKGRITISRDNAKNTVYLQMNSLKPEDTAVYYCNKLVGDDTALYDYWGQGTQVTVSS | high polyreactivity
QVQLVESGGGLVHAGGSLRLSCAASGRTFYIYAMGWYRQAPGKERELVADITSGGSTYYADSVKGRFTISRDNAKNTVYLQMNSLKPEDTAVYYCAADWVTFYSYTEYDYWGQGTQVTVSS | low polyreactivity
QVQLVESGGGLVHAGGSLRLSCAASGSIFDWNAMGWYTQAPGKERELVATISWDGGSTYYADSVKGRFTISRDNAKNTVYLQMNSLKPEDTAVYYCATVFTGKPAFYARTKYDYWGQRTQVTVSS | low polyreactivity
QVQLVESGGGLVHAGGSLRLSCAASGSIFEFYAMGWYRQAPGKERELVAAITWDDGSTYYADSVKGRFTISRDNAKNTVYLQMNSLKPEDTAVYYCAASASVRGGGADQYVIAFDYWGQGTQVTVSS | low polyreactivity
QVQLVESGGGLVHAGGSLRLSCAASGSIFGRNAMGWYRQPPGKERELVARISSRGGSTYYADSVKGRFTISRDNAKNTVYLQMNSLKPEDTAVYYCNRDRTSQTNDYWGQGNQVTVSS | high polyreactivity
QVQLVESGGGLVHAGGSLRLSCAASGSIFKVYAMGWYRQAPGKERELVASITSGGRTYADSVKGRFTISRDNAKNTVYLQRNSLKPEDTAVYYCSARSRSKFYYWGQGTQVTVSS | high polyreactivity
QVQLVESGGGLVHAGGSLRLSCAASGSIFPVNAMGWYRQAPGKERELVAAITSSGGTTYYADSVKGRFTISRDYAKITVYLLMNSLKPVDTAVYYCAADVDVSYWRMEYWGQGTQVTVSS | high polyreactivity
QVQLVESGGGLVHAGGSLRLSCAASGSIFSWYDMGWYRQAPGKERELVADISSGGSTNYADSVKGRFTISRDNAKNTVYLQMNSMKPEDTAVYYCNARLGYLYDYWGQGTQVTVSS | low polyreactivity
QVQLVESGGGLVHAGGSLRLSCAASGSIFVGYAMGWYRQAPGKERELVARISRSGTSTYYADSVKGRFTISRDNAKNTVYLQMNSLKPEDTAVYYCNATVSRYSGYQRGHYWRYDYWGQGTQVTVSS | high polyreactivity
QVQLVESGGGLVHAGGSLRLSCAASGSIFYEYAMGWYRQAPGKERELVASINRGGGSTYYADSVKGRFTISRDNAKNTVYLQMNSLKPEDTAVYYCAAQWKYRQSYLDYYWGQGTQVNVSS | low polyreactivity
QVQLVESGGGLVHAGGSLRLSCAASGSIIEAYAMGWYRQAPGKEMELVAVISTGGGSTSYADSVKGRFTISRDNAKNTVYLQMNSLKPEDTAVYYCAAEYRWSYFRTYYSWGQGTQVTVSS | low polyreactivity
QVQLVESGGGLVHAGGSLRLSCAASGSIYVDNAMGWYRQAPGTERELVAVISWIGSSTYYADSVKGRFTISRDNAKYTVYFQMNSLNPEDTAVFYCAAAPSRTLLRQSKYYFWGQGTQVNVSS | low polyreactivity

Sequence | polyreactivity (PSR sort gate)
QVQLVESGGGLVHAGGSLRLSCAASGSIYYGNAMGWYIQAPGKERELVARISWSGSNTRYADSVKGRFTISRDNSKITVYLQMNSLKPEDTAVYYCNRGSYQTSFFRYDYWGQGTQVTVSS | high polyreactivity
QVQLVESGGGLVHAGGSLRLSCAASGSTFGFYARGWYRQAPGKERELVAAITTGGSTNYADSVKGRFTISRVNAKNTVYLQMYSLKPEDSAVYYCHADVYWNPYYDYDYWGQGTLVTVSS | high polyreactivity
QVQLVESGGGLVHAGGSLRLSCAASGSTFHTYDMGWYRKAPWKERELVAAITSRDSTHYADSVKGCFTISRDNAKNTVYLQMNSLKPEDTAVYYCAASAPYLYYRSAYYYWGQGTQVTVSS | low polyreactivity
QVQLVESGGGLVHAGGSLRLSCAASGSTFPSYAMGWYRQAPGKERELVAAINSGGGTYYADSVKGRFTISRDNAKNTVYLQRNSLKPEDTAVYYCATSRYDYTKTEGGYWGQGNQVTVSS | low polyreactivity
QVQLVESGGGLVHAGGSLRLSCAASGSTFRLYSMGWYRQAPGKERELVAAISSNGVRTYYADSVKGRFTISRDNAKNTVYLQMNSLKPEDTAVYYCAARVYPAYPRGYDYWGQGTQVTVSS | high polyreactivity
QVQLVESGGGLVHAGGSLRLSCAASGSTFSWYVMGWYRQAPGKERELVAAISYRGGRTYYADSVKGRFTISRDNAKNTVYLHMNSLKTEDTAVYYCAARGVVDAGRTNRPYDYWGQGTQVTVSS | low polyreactivity
QVQLVESGGGLVHAGGSLRLSCAASGSTSVYYAMGWYRQTPGKERELVAAITWDDGSTSYADSVKGRFTISRDNAKNTVYLQMNSLNPEDTAVYYCAKDYEYLGAFNYWGQGTQVTVSS | low polyreactivity
QVQLVESGGGLVHAGGSLRLSCAASRYTFVNYAMGWYSQAPGKERELVAAITSRGSSTYYADSVKGRFTLSRDNAKNTVYLQMNSLNPEDTAVYYCYVHVRNHDYWGEGTQVTVSS | high polyreactivity
QVQLVESGGGLVHAGGSLRLSCAPSGSNFCFNAMGWYRQAPGKERELVAAIPSRGGSTYYADSVKGRFTISRDNAKNTVYLQMNSLKPEDTAVYYCNADHRDTFIWVGLPHMDYWGQGTQVTVSS | low polyreactivity
QVQLVESGGGLVHAGGSLRLSCASSGFTFWKYAIGGYRQAPGKERELVATISLGGARTYYADSVKGRFTISLDNAKNTVYLQMNSLKPEDTAVYYCNARCRWTANFDYWVQGTQVTVSS | high polyreactivity
QVQLVESGGGLVHAGGSLRLSCDASGFTFAGYSMGWYRQAPGKERELVAGIRSSGARTYYADSVKGRFTISRDNAKTTVYLQKNILKPEHTAVYYCAKTDGFYSGYGYWGQGTQVTVSS | low polyreactivity
QVQLVESGGGLVHAGGSLRLSCDASGITFWAYAMGWYRQAPGKEREFVAAITVSTGSTFYADSVKGRFTISRDNAKNTVYLQMNSLKREDTALYYCAAPQDGTWWLPAGGYWGQGTQVTVSS | low polyreactivity
QVQLVESGGGLVHAGGSLRLSCDASGLTFAYYAMGWYRQAPGKERELVAAISWNGGRTYYADSVKGRFTISRDNAKNTVYLQMNSLKPEDTAVYYCAAQVTSSFYWGQGTQVTVSS | high polyreactivity
QVQLVESGGGLVHAGGSLRLSCSASGFTFYKYAMGWYRQAPGKERELVAAFSYSGGSTYYADSVKGRFTISRDNAKNTVYLQMNSLKPEDTAVYYCAARVRGTGYNSWGQGTLVTVSS | high polyreactivity
QVQLVESGGGLVHAGGSLRLSSAASGGIFKYNPMGWYRQAPGTERELVARISFGGSRTYYADSVKGRFTISRDNAKNTCYVQMNSLKPADTAVYYCARRVTGTLYYTGYDYWGQGTQVTVSS | high polyreactivity
QVQLVESGGGLVHAGGSLRLSSAASGLIFGWYAMGWYRPAPGKEREFVASIRDGGGSTYYADSVNGRFTISRDNANNTVFLEMHSLKPEDSAVYYFAADRYPWHLQYVEYDSDFWGQGTQVTVSS | low polyreactivity
QVQLVESGGGLVHAGGSLRVSCAASGFTFYLYTMGWYRQAPGTERELVAAINYSGGRTYYADSVKGRFTISRDYAKNSVYLQMNSLKPEDTAVYYCYPRVKNLQAYDYWGQGTQVTVSS | high polyreactivity
QVQLVESGGGLVHAGGSLSLSCAAYYAMGWYRQAPGKERELVAAIDDCTSTNYADSVKGRFTISRDNAKNTVYLQMNSLKPEDTAVDYCNKLSEVTYYGSKFDYWGQGTQVTVSS | low polyreactivity
QVQLVESGGGLVHAGGTLSLSCADSGFTYVLYGMGWYRQEPGKESELVASITWNGVGTYYADSVKGRFTIARDNAKNTVYLHMNSLKPEDTSVYFCHADDPDLASYLGVDYWGQGSQVTVSS | high polyreactivity
QVQLVESGGGLVKAAGSLRLSSAASGSIFSYNAMGWNRQAPGKERELVAAITFTAGNTYYADSVKGRFTISRDNAKNTVYLQMNILKPEDTAVYYCAATIQSYREDDNWGQGTQVTVSS | low polyreactivity
QVQLVESGGGLVKAGGSLRLISAATGSIFTFYAMGWYRQAPGKERELVATINRIGGNTYYADSVKGRFTISRDNAKNTVYLQMNSLKPEDTAVYYCAAKPTDRGYGYGSWGQGTQVSVSS | low polyreactivity
